# Assay results from the supplement of paper PMC10567573.
# B1: CDC25A (parent)
# chain: TVAGKHQDLKYISPEIMASVLNGK
# Variants of: B1
# Assay: protein stability index of a GFP-peptide fusion (GPS, HEK-293T) (PSI 1-6); higher = more stable
# Conditions: c terminus: a fixed tail appended
# 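Also: lentivirally expressed fusions sorted by FACS into six bins by GFP to DsRed ratio, PSI derived from sequencing read proportions per bin multiplied by bin number.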
row,Variant,protein stability index
1,TVAGKHQDLKYISPEIPASVLNGK [M17P],4
2,TVAGKHQDLKYISPEIRASVLNGK [M17R],3.87
3,TVAGKHQDLKYISPEICASVLNGK [M17C],3.42
4,TVAGKHQDLKYISPEIKASVLNGK [M17K],3.96
5,TVAGKHQDLKYISPEIYASVLNGK [M17Y],3.1
6,TVAGKHQDLKYISPEILASVLNGK [M17L],2.64
7,TVAGKHQDLKYISPEIHASVLNGK [M17H],3.8
8,TVAGKHQDLKYISPEIIASVLNGK [M17I],2.71
9,TVAGKHQDLKYISPEIAASVLNGK [M17A],3.96
10,TVAGKHQDLKYISPEITASVLNGK [M17T],3.22
11,TVAGKHQDLKYISPEIWASVLNGK [M17W],2.46
12,TVAGKHQDLKYISPEISASVLNGK [M17S],4.12
13,TVAGKHQDLKYISPEIGASVLNGK [M17G],3.88
14,TVAGKHQDLKYISPEIQASVLNGK [M17Q],3.73
15,TVAGKHQDLKYISPEIFASVLNGK [M17F],2.78
16,TVAGKHQDLKYISPEIDASVLNGK [M17D],3.89
17,TVAGKHQDLKYISPEINASVLNGK [M17N],3.74
18,TVAGKHQDLKYISPEIVASVLNGK [M17V],3.42
19,TVAGKHQDLKYISPEIEASVLNGK [M17E],4.21
20,TVAGKHQDLKYISWEIMASVLNGK [P14W],2.13
21,TVAGKHQDLKYISREIMASVLNGK [P14R],2.91
22,TVAGKHQDLKYISCEIMASVLNGK [P14C],1.85
23,TVAGKHQDLKYISEEIMASVLNGK [P14E],3.49
24,TVAGKHQDLKYISKEIMASVLNGK [P14K],2.96

row,Variant,protein stability index
1,TVAGKHQDLKYISHEIMASVLNGK [P14H],2.19
2,TVAGKHQDLKYISQEIMASVLNGK [P14Q],2.87
3,TVAGKHQDLKYISNEIMASVLNGK [P14N],3.29
4,TVAGKHQDLKYISSEIMASVLNGK [P14S],2.55
5,TVAGKHQDLKYISGEIMASVLNGK [P14G],3.14
6,TVAGKHQDLKYISDEIMASVLNGK [P14D],3.4
7,TVAGKHQDLKYISAEIMASVLNGK [P14A],2.41
8,TVAGKHQDLKYISYEIMASVLNGK [P14Y],2.79
9,TVAGKHQDLKYISVEIMASVLNGK [P14V],2.7
10,TVAGKHQDLKYISLEIMASVLNGK [P14L],2.4
11,TVAGKHQDLKYISMEIMASVLNGK [P14M],2.02
12,TVAGKHQDLKYISFEIMASVLNGK [P14F],2.24
13,TVAGKHQDLKYISTEIMASVLNGK [P14T],2.55
14,TVAGKHQDLKYISIEIMASVLNGK [P14I],2.76
15,TVAGKHQDLKYISPEIMASQLNGK [V20Q],3.68
16,TVAGKHQDLKYISPEIMASWLNGK [V20W],2.84
17,TVAGKHQDLKYISPEIMASTLNGK [V20T],3.75
18,TVAGKHQDLKYISPEIMASGLNGK [V20G],3.79
19,TVAGKHQDLKYISPEIMASLLNGK [V20L],2.84
20,TVAGKHQDLKYISPEIMASHLNGK [V20H],3.33
21,TVAGKHQDLKYISPEIMASCLNGK [V20C],2.93
22,TVAGKHQDLKYISPEIMASELNGK [V20E],4.1
23,TVAGKHQDLKYISPEIMASNLNGK [V20N],3.38
24,TVAGKHQDLKYISPEIMASDLNGK [V20D],4.35

row,Variant,protein stability index
1,TVAGKHQDLKYISPEIMASRLNGK [V20R],3.99
2,TVAGKHQDLKYISPEIMASMLNGK [V20M],3.56
3,TVAGKHQDLKYISPEIMASKLNGK [V20K],3.73
4,TVAGKHQDLKYISPEIMASALNGK [V20A],3.56
5,TVAGKHQDLKYISPEIMASFLNGK [V20F],2.92
6,TVAGKHQDLKYISPEIMASSLNGK [V20S],4.11
7,TVAGKHQDLKYISPEIMASPLNGK [V20P],3.64
8,TVAGKHQDLKYISPEIMASILNGK [V20I],2.63
9,TVAGKHQDLKYISPEIMASYLNGK [V20Y],2.72
10,TVAGKHQDLKVISPEIMASVLNGK [Y11V],3.29
11,TVAGKHQDLKWISPEIMASVLNGK [Y11W],2.78
12,TVAGKHQDLKTISPEIMASVLNGK [Y11T],3.79
13,TVAGKHQDLKYISPRIMASVLNGK [E15R],2.64
14,TVAGKHQDLKYISPPIMASVLNGK [E15P],3.05
15,TVAGKHQDLKYISPCIMASVLNGK [E15C],2.25
16,TVAGKHQDLKYISPMIMASVLNGK [E15M],2.19
17,TVAGKHQDLKYISPTIMASVLNGK [E15T],2.63
18,TVAGKHQDLKYISPIIMASVLNGK [E15I],1.78
19,TVAGKHQDLKYISPQIMASVLNGK [E15Q],2.82
20,TVAGKHQDLKYISPDIMASVLNGK [E15D],3.42
21,TVAGKHQDLKYISPNIMASVLNGK [E15N],2.95
22,TVAGKHQDLKYISPGIMASVLNGK [E15G],3.08
23,TVAGKHQDLKYISPKIMASVLNGK [E15K],2.68
24,TVAGKHQDLKYISPYIMASVLNGK [E15Y],1.84

row,Variant,protein stability index
1,TVAGKHQDLKYISPVIMASVLNGK [E15V],1.89
2,TVAGKHQDLKYISPWIMASVLNGK [E15W],1.76
3,TVAGKHQDLKYISPHIMASVLNGK [E15H],2.74
4,TVAGKHQDLKYISPLIMASVLNGK [E15L],1.99
5,TVAGKHQDLKYISPAIMASVLNGK [E15A],2.77
6,TVAGKHQDLKYISPSIMASVLNGK [E15S],3.09
7,TVAGKHQDLKYISPFIMASVLNGK [E15F],2.07
8,TVAGKHQDLKYHSPEIMASVLNGK [I12H],3.29
9,TVAGKHQDLKYWSPEIMASVLNGK [I12W],2.64
10,TVAGKHQDLKYFSPEIMASVLNGK [I12F],2.94
11,TVAGKHQDLKYESPEIMASVLNGK [I12E],3.83
12,TVAGKHQDLKYVSPEIMASVLNGK [I12V],3.71
13,TVAGKHQDLKYPSPEIMASVLNGK [I12P],3.57
14,TVAGKHQDLKYLSPEIMASVLNGK [I12L],3.16
15,TVAGKHQDLKYQSPEIMASVLNGK [I12Q],4.04
16,TVAGKHQDLKYASPEIMASVLNGK [I12A],3.49
17,TVAGKHQDLKYCSPEIMASVLNGK [I12C],3.23
18,TVAGKHQDLKYGSPEIMASVLNGK [I12G],3.82
19,TVAGKHQDLKYKSPEIMASVLNGK [I12K],3.83
20,TVAGKHQDLKYDSPEIMASVLNGK [I12D],4.16
21,TVAGKHQDLKYNSPEIMASVLNGK [I12N],3.46
22,TVAGKHQDLKYRSPEIMASVLNGK [I12R],3.58
